Experimental data as given in article PMC6276879 (The EMBO Journal, 2018).

Molecular target: T1, phosphorylated ubiquitin (UniProt P0CG48 1-76, phosphorylated by PINK1 (pUb); the residue is not given)
T1 construct: ubiquitin, phosphorylated by PINK1 (pUb); also called pUb; phospho-ubiquitin; source: E. coli BL21(DE3)CodonPlus-RIL; phosphorylated with Pediculus humanus PINK1, purified (Superdex 75)
Experiment: SEC; 1.5-fold excess pUb over R0RBR in 20 mM Tris, 75 mM NaCl, 250 uM TCEP, pH 8; 1:1 complex purified on Superdex 75 10/300
Conditions: both partners purified

binding result: binds
B1: R0RBR parkin (141-465) (domain or fragment, human, UniProt O60260 141-465, looked up)
chain: SIYNSFYVYCKGPCQRVQPGKLRVQCSTCRQATLTLTQGPSCWDDVLIPNRMSGECQSPHCPGTSAEFFFKCGAHPTSDKETSVALHLIATNSRNITCITCTDVRSPVLVFQCNSRHVICLDCFHLYCVTRLNDRQFVHDPQLGYSLPCVAGCPNSLIKELHHFRILGEEQYNRYQQYGAEECVLQMGGVLCPRPGCGAGLLPEPDQRKVTCEGGNGLGCGFAFCRECKEAYHEGECSAVFEASGTTTQAYRVDERAAEQARWEAASKETIKKTTKPCPRCHVPVEKNGGCMHMKCPQPQCRLEWCWNCGCEWNRVCMGDHWFDV
notes: parkin, human, residues 141-465 (R0RBR: RING0-RING1-IBR-RING2(Rcat)); also called R0RBR C-terminal region of parkin; source: E. coli BL21(DE3), purified (HisTrap, Ulp1 cleavage, HisTrap, Superdex 75); not shown: His-smt3, N-terminal, cleaved
